# Experimental data: paper PMC11742489
# “And” between values parts separate entries of the source, which are not always exact repeats. Equal values may be shown once.
# Target: Ca2+/CaM
# Test: ITC; Cav1.2-NSCaTE peptide (20-fold molar excess) injected into CaM (~50 uM); 50 mM HEPES, 100 mM KCl, 2 mM MgCl2, pH 7.5, 5 mM CaCl2 (Ca2+-saturating); 20°C by the legend, 25°C by the methods; one-site binding model
substance,measurement,value
Cav1.2-NSCaTE(51-67) peptide,stoichiometry N,2 and 1.7
